Measurements reported in PMC10528150, “Mutant Cytochrome C as a Potential Detector of Superoxide Generation: Effect of Mutations on the Function and Properties” (Cells, 2023).

Biological target: cytochrome c oxidase (ferrocytochrome c:oxygen oxidoreductase), solubilized complex
Test: cell-based or functional assay

| Activity in the cytochrome c oxidase reaction, % of WT [%] | Binder |
| --- | --- |
| 100 | cytochrome c wild type (recombinant horse heart CytC) (natural protein, heme c (hemoporphyrin type c, Fe ligated by His18 and Met80)) not shown |
| < 1 | cytochrome c with substitutions K8E/K27E/E62K/E69K/K72E/K86E/K87E/E90K (natural protein, heme c (hemoporphyrin type c)) not shown |
